Test results as given in patent US20130143227A1 (University of Texas, published 2013).
Each block holds one binder with its values, some of them ahead of it.

Experiments:
[1] = target: T1, FLAG-LGR6 (human LGR6, predicted mature form aa25-967, N-terminal FLAG tag), expressed on HEK293 cells (human, UniProt Q9HBX8 26-967); assay: whole-cell fluorescence competition binding, displacement of mRSPO1-Fc (~5 nM) from HEK293 cells expressing FLAG-LGR6
T1 construct: Residues 25-967 are counted on NP-001017403
T1 sequence: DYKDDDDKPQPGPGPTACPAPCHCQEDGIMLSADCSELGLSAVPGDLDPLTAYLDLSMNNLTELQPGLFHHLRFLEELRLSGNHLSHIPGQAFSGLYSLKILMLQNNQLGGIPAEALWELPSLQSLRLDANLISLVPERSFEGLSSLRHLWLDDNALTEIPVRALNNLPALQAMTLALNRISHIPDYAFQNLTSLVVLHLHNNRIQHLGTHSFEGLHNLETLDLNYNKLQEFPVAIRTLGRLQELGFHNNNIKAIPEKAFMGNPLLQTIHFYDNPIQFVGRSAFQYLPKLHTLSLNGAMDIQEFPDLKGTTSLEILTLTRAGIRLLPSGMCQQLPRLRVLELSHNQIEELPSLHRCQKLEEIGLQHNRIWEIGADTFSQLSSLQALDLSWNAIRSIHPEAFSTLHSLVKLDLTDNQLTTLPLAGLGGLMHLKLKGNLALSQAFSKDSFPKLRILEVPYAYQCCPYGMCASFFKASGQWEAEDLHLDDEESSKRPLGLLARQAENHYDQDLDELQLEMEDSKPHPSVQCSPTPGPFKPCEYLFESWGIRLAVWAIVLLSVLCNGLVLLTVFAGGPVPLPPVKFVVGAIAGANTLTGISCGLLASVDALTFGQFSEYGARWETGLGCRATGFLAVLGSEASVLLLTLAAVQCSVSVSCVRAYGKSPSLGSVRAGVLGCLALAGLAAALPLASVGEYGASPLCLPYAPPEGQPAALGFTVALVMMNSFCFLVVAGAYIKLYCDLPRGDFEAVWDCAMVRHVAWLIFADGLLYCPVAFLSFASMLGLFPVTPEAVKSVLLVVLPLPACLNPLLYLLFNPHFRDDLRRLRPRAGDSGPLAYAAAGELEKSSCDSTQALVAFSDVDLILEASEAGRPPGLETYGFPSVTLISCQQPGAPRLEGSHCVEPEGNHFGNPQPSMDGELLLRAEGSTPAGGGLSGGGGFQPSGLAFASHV
Method: (§1) A fluorescence-based whole-cell competition binding assay was developed to determine whether purified, recombinant RSP01-4 could compete with mRSPO1-Fc for binding to LGR4-6. HEK293 cells stably expressing Myc-LGR4, Myc-LGR5, or FLAG-LGR6 were seeded into poly-D-lysine-coated 96-well black/clear bottom plates (Becton Dickinson) at ˜60,000 cells/well. After overnight culturing, the plates were chilled on ice for 5 min, media were removed from each well, and the cells were washed twice with cold PBS. The recombinant RSPOs under investigation were diluted in 3-fold serial dilutions in cold OPTI-MEM®+0.5% BSA and added onto the cells at 50 μl/well, followed immediately by the addition of equal volume of mRSPO1-Fc diluted by 1:100 in the same buffer. The cells were the incubated for 3.5 hrs at 4° C. with gentle agitation, followed by three quick washes with cold PBS. The cells were then fixed in 4% paraformaldehyde/PBS for 15 min at room temperature and washed 3× with PBS. The cells were further incubated with Alexa Fluor® 647-labeled goat anti-mouse IgG (H+L) (Invitrogen, diluted by 1:200) in OPTI-MEM®+0.5% BSA for 1 hr at room temperature. The cells were washed thrice with PBS and fluorescence intensity was measured using a Tecan M1000 plate reader with excitation at 630 nm and emission at 670 nm. All experiments were performed at least twice with quadruplicate replicates in each experiment. HEK293 cells stably expressing Myc-LGR4 (shown in FIG. 4B), Myc-LGR5 (shown in FIG. 4C), or FLAG-LGR6 (shown in FIG. 4D) were incubated with mRSPO1Fc at ˜5 nM plus serial dilutions of purified recombinant RSPO1-4 for 3-4 hrs at 4° C. Binding of mRSPO1-Fc was detected with Alexa Fluor® 647-labeled anti-mouse IgG. Maximum specific binding is defined by the difference between the data of with and without mRSPO1-Fc which is approximately 50% of total binding in general. All error bars are S.E.M. (n=4). […] As shown in FIGS. 4B-D, RSPO1-4 were able to completely displace the binding of mRSPO1-Fc to LGR4-6 with IC50's in the nM range, the one exception was the μM IC50's for RSPO3 (SEQ ID NO:46; SEQ ID NO:47) and RSPO4 (SEQ ID NO:48; SEQ ID NO:49) binding to LGR4.

[2] = target: T2, Myc-LGR4 (mouse LGR4, predicted mature form aa23-951, N-terminal Myc tag), expressed on HEK293 cells (mouse, UniProt A2ARI4 23-951); assay: cell-based or functional assay
T2 sequence: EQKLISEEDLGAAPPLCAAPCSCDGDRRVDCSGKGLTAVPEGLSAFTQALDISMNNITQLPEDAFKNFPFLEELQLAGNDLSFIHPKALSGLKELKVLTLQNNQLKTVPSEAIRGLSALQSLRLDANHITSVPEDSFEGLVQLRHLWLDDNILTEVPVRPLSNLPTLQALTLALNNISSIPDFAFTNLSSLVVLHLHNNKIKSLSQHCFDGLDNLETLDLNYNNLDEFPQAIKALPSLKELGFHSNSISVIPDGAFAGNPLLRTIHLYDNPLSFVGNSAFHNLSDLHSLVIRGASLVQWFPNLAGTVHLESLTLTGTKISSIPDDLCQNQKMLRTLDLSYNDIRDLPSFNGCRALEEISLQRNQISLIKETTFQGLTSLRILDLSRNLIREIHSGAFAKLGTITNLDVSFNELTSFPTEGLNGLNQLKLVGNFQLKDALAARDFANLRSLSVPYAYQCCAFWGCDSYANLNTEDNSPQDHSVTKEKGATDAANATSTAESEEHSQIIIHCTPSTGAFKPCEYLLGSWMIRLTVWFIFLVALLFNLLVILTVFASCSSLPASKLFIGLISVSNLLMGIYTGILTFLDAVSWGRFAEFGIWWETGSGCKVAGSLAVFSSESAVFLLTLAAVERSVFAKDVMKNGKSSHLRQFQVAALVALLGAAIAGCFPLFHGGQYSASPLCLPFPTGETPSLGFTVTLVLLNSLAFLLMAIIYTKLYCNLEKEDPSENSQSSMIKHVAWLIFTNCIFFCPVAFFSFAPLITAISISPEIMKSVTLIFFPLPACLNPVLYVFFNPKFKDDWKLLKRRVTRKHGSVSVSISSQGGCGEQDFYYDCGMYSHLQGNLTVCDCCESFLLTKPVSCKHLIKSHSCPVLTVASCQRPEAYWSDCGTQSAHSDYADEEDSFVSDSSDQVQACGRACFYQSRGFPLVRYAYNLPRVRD

[3] = target: T3, Myc-LGR5 (human LGR5, predicted mature form aa21-907, N-terminal Myc tag), expressed on HEK293 cells (human, UniProt O75473 22-907); assay: cell-based or functional assay
T3 sequence: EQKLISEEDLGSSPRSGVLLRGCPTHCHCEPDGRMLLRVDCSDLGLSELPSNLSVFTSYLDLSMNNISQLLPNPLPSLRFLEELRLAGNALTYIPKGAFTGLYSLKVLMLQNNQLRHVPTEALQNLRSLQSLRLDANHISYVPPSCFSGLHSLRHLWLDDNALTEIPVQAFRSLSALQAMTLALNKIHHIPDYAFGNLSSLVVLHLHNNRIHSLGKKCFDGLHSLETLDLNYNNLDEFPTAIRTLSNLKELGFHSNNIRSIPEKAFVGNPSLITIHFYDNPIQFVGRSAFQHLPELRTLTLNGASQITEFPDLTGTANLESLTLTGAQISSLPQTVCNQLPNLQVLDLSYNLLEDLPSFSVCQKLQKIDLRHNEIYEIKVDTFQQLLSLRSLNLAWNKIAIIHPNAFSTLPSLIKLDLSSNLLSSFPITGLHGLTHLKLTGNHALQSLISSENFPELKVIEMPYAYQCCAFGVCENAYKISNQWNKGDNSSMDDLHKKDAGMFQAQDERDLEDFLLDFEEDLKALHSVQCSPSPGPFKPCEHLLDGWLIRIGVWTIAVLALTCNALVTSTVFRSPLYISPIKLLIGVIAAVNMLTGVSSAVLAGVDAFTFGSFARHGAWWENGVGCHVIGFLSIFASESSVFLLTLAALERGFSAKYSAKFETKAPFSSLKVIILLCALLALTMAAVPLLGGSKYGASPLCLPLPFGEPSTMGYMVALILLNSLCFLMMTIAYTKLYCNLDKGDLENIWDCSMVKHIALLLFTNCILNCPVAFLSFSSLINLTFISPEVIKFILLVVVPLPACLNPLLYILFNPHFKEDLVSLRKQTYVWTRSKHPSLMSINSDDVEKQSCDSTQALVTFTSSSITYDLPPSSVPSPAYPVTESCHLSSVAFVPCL

[4] = target: T2, Myc-LGR4 (mouse LGR4, predicted mature …); assay: whole-cell fluorescence competition binding, displacement of mRSPO1-Fc (~5 nM) from HEK293 cells expressing Myc-LGR4
Method: as §1

[5] = target: T3, Myc-LGR5 (human LGR5, predicted mature …); assay: whole-cell fluorescence competition binding, displacement of mRSPO1-Fc (~5 nM) from HEK293 cells expressing Myc-LGR5
Method: as §1

[6] = target: T1, FLAG-LGR6 (human LGR6, predicted mature …); assay: cell-based or functional assay
[7] = target: T1, FLAG-LGR6 (human LGR6, predicted mature …); assay: cell-based or functional assay; remark: listed apart in the source

IC50 [1]: 7.7 nM
potency (EC50, nM), β-catenin reporter (Super 8x TOPFlash) with Wnt3a CM [2]: 0.09 nM
potency (EC50, nM), β-catenin reporter (Super 8x TOPFlash) with Wnt3a CM [3]: 0.4 nM
IC50 [4]: 228 nM
IC50 [5]: 11 nM
B1: recombinant human RSPO4 (ligand)
chain: LNRRKKQVGTGLGGNCTGCIICSEENGCSTCQQRLFLFIRREGIRQYGKCLHDCPPGYFGIRGQEVNRCKKCGATCESCFSQDFCIRCKRQFYLYKGKCLPTCPPGTLAHQNTRECQGECELGPWGGWSPCTHNGKTCGSAWGLESRVREAGRAGHEEAATCQVLSESRKCPIQRPCPGERSPGQKKGRKDRRPRKDRKLDRRLDVRPRQPGLQP
notes: Bought from R&D Systems; also called R-spondin 4

IC50 [1]: 3.3 nM
potency (EC50, nM), β-catenin reporter (Super 8x TOPFlash) with Wnt3a CM [2]: 0.02 nM
potency (EC50, nM), β-catenin reporter (Super 8x TOPFlash) with Wnt3a CM [3]: 0.008 nM
potency (EC50, nM), β-catenin reporter (Super 8x TOPFlash) with Wnt3a CM [6]: 0.03 nM
fold change of EC50 against vector-transfected cells, β-catenin reporter [7]: 20 fold
IC50 [4]: 25 nM
IC50 [5]: 4 nM
B2: recombinant human RSPO1 (ligand, UniProt Q2MKA7 21-263, looked up)
chain: SRGIKGKRQRRISAEGSQACAKGCELCSEVNGCLKCSPKLFILLERNDIRQVGVCLPSCPPGYFDARNPDMNKCIKCKIEHCEACFSHNFCTKCKEGLYLHKGRCYPACPEGSSAANGTMECSSPAQCEMSEWSPWGPCSKKQQLCGFRRGSEERTRRVLHAPVGDHAACSDTKETRRCTVRRVPCPEGQKRRKGGQGRRENANRNLARKESKEAGAGSRRRKGQQQQQQQGTVGPLTSAGPA
notes: Bought from R&D Systems; also called R-spondin 1

IC50 [1]: 1.3 nM
maximum effect (Emax, fraction of vector control), β-catenin reporter [2]: 0.9 fraction of vector control
potency (EC50, nM), β-catenin reporter (Super 8x TOPFlash) with Wnt3a CM [2]: 0.02 nM
maximum effect (Emax, fraction of vector control), β-catenin reporter [3]: 1.1 fraction of vector control
potency (EC50, nM), β-catenin reporter (Super 8x TOPFlash) with Wnt3a CM [3]: 0.01 nM
maximum effect (Emax, fraction of vector control), β-catenin reporter [6]: 0.5 fraction of vector control
potency (EC50, nM), β-catenin reporter (Super 8x TOPFlash) with Wnt3a CM [6]: 0.05 nM
IC50 [4]: 126 nM
IC50 [5]: 2.1 nM
B3: recombinant human RSPO3 (ligand)
chain: QNASRGRRQRRMHPNVSQGCQGGCATCSDYNGCLSCKPRLFFALERIGMKQIGVCLSSCPSGYYGTRYPDINKCTKCKADCDTCFNKNFCTKCKSGFYLHLGKCLDNCPEGLEANNHTMECVSIVHCEVSEWNPWSPCTKKGKTCGFKRGTETRVREIIQHPSAKGNLCPPTNETRKCTVQRKKCQKGERGKKGRERKRKKPNKGESKEAIPDSKSLESSKEIPEQRENKQQQKKRKVQDKQKSVSVSTVH
notes: Bought from R&D Systems; also called R-spondin 3

IC50 [1]: 0.5 nM
maximum effect (Emax, fraction of vector control), β-catenin reporter [2]: 0.9 fraction of vector control
potency (EC50, nM), β-catenin reporter (Super 8x TOPFlash) with Wnt3a CM [2]: 0.0003 nM
maximum effect (Emax, fraction of vector control), β-catenin reporter [3]: 1 fraction of vector control
potency (EC50, nM), β-catenin reporter (Super 8x TOPFlash) with Wnt3a CM [3]: 0.001 nM
maximum effect (Emax, fraction of vector control), β-catenin reporter [6]: 0.5 fraction of vector control
potency (EC50, nM), β-catenin reporter (Super 8x TOPFlash) with Wnt3a CM [6]: 0.01 nM
fold change of EC50 against vector-transfected cells, β-catenin reporter [7]: 20 fold
IC50 [4]: 2.3 nM
IC50 [5]: 0.5 nM
B4: recombinant human RSPO2 (ligand, UniProt Q6UXX9 22-243, looked up)
chain: QGNRWRRSKRASYVSNPICKGCLSCSKDNGCSRCQQKLFFFLRREGMRQYGECLHSCPSGYYGHRAPDMNRCARCRIENCDSCFSKDFCTKCKVGFYLHRGRCFDECPDGFAPLEETMECVEGCEVGHWSEWGTCSRNNRTCGFKWGLETRTRQIVKKPVKDTILCPTIAESRRCKMTMRHCPGGKRTPKAKEKRNKKKKRKLIERAQEQHSVFLATDRANQ
notes: Bought from R&D Systems; also called R-spondin 2
